From the supplement of paper PMC7877785
± gives the uncertainty stated by the source.

Assay: self-splicing fitness, log relative to wild type (ln ratio); higher = more splicing; Tetrahymena group I intron in knt gene, E. coli kanamycin selection, DiMSum; sequences stand for … in CUCUCU…GGAGGGAAAAGUUAUCAGGCAUGCACCUGGUAGCUAGUCUUUAAACCAAUAGAUUGCAUCGGUUUAAAAGGCAAGACCGUCAAAUUGCGGGAAAGGGGUCAACAGCCGUUCAGUACCAAGUCUCAGGGGAAACUUUGAGAUGGCCUUGCAAAGGGUAUGGUAAUAAGCUGACGGACAUGGUCCUAACCACGCAGCCAAGUCCUAAGUCAACAGAUCUUCUGUUGAUAUGGAUGCAGUUCACAGACUAAAUGUCGGUCGGGGAAGAUGUAUUCUUCUCAUAAGAUAUAGUCGGACCUCUCCUUAAUGGGAGCUAGCGGAUGAAGUGAUGCAACACUGGAGCCGCUGGGAACUAAUUUGUAUGCGAAAGUAUAUUGAUUAGUUUUGGAGUACUCGUGGUCG
Outline: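 Six replicate transformations of E. coli BL21(DE3) with a pET-22b(+) library were grown overnight at 37°C or 30°C. The library randomised all eight P1ex-region intron nucleotides, the intron lying in the knt kanamycin-resistance gene, and plates were LB agar with or without 25 μg/mL kanamycin plus 100 μg/mL carbenicillin, 50 μM IPTG and 0.2% rhamnose. Pooled colonies were amplicon-sequenced on an Illumina HiSeq 2500, and fitness is the DiMSum error-weighted combination of wild-type-normalised replicate fold changes, kanamycin versus none.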

GCCUAGCAAUAUUACGGGGG
self-splicing fitness (ln) (30 °C): -2.92 ± 0.22
self-splicing fitness (ln) (37 °C): -1.34 ± 0.13

UUACAGCAAUAUUACGCAUU
self-splicing fitness (ln) (30 °C): -2.73 ± 0.17
self-splicing fitness (ln) (37 °C): -1.52 ± 0.14

UGCCAGCAAUAUUACGGAUG
self-splicing fitness (ln) (30 °C): -1.21 ± 0.093
self-splicing fitness (ln) (37 °C): -0.248 ± 0.12

CCAAAGCAAUAUUACGGGUG
self-splicing fitness (ln) (30 °C): -1.01 ± 0.053
self-splicing fitness (ln) (37 °C): -0.233 ± 0.085

AAGAAGCAAUAUUACGGCUC
self-splicing fitness (ln) (30 °C): -1.19 ± 0.12
self-splicing fitness (ln) (37 °C): -0.0707 ± 0.15

UUCUAGCAAUAUUACGGCGC
self-splicing fitness (ln) (30 °C): -2.84 ± 0.25
self-splicing fitness (ln) (37 °C): -2.7 ± 0.24

CCGUAGCAAUAUUACGAGAA
self-splicing fitness (ln) (30 °C): -2.42 ± 0.42
self-splicing fitness (ln) (37 °C): -1.03 ± 0.44

GAAUAGCAAUAUUACGAAGU
self-splicing fitness (ln) (37 °C): -2.45 ± 0.2

CACCAGCAAUAUUACGUACG
self-splicing fitness (ln) (30 °C): 0.0448 ± 0.04
self-splicing fitness (ln) (37 °C): 0.848 ± 0.062

GGCCAGCAAUAUUACGCGUC
self-splicing fitness (ln) (30 °C): -2.97 ± 0.12
self-splicing fitness (ln) (37 °C): -1.75 ± 0.15

AGGGAGCAAUAUUACGUUGG
self-splicing fitness (ln) (30 °C): -4.08 ± 0.37
self-splicing fitness (ln) (37 °C): -2.5 ± 0.33

UAGGAGCAAUAUUACGAGUU
self-splicing fitness (ln) (30 °C): -3.51 ± 0.27
self-splicing fitness (ln) (37 °C): -2.48 ± 0.33

AUGGAGCAAUAUUACGUGUG
self-splicing fitness (ln) (37 °C): -2.69 ± 0.24

UGUAAGCAAUAUUACGCCAC
self-splicing fitness (ln) (30 °C): -3.43 ± 0.33
self-splicing fitness (ln) (37 °C): -2.65 ± 0.41

UCGGAGCAAUAUUACGGGCG
self-splicing fitness (ln) (30 °C): -1.37 ± 0.11
self-splicing fitness (ln) (37 °C): -1.39 ± 0.18

UUGUAGCAAUAUUACGUCGU
self-splicing fitness (ln) (30 °C): -3.78 ± 0.26
self-splicing fitness (ln) (37 °C): -2.44 ± 0.2

UAUAAGCAAUAUUACGCCUC
self-splicing fitness (ln) (30 °C): -2.74 ± 0.38
self-splicing fitness (ln) (37 °C): -2.08 ± 0.36

AGGCAGCAAUAUUACGUAUU
self-splicing fitness (ln) (30 °C): -1.41 ± 0.095
self-splicing fitness (ln) (37 °C): -1.22 ± 0.12

CUUUAGCAAUAUUACGACAU
self-splicing fitness (ln) (30 °C): -3.762 ± 0.032
self-splicing fitness (ln) (37 °C): -2.81 ± 0.043

CAUGAGCAAUAUUACGAACG
self-splicing fitness (ln) (30 °C): -0.482 ± 0.082
self-splicing fitness (ln) (37 °C): -0.421 ± 0.088

UUAUAGCAAUAUUACGUUCC
self-splicing fitness (ln) (37 °C): -2.09 ± 0.48

ACCAAGCAAUAUUACGGAGA
self-splicing fitness (ln) (30 °C): -3.16 ± 0.15
self-splicing fitness (ln) (37 °C): -1.66 ± 0.11

AGUAAGCAAUAUUACGUCGA
self-splicing fitness (ln) (30 °C): -2.11 ± 0.21
self-splicing fitness (ln) (37 °C): -1.61 ± 0.2

CAAUAGCAAUAUUACGCAUU
self-splicing fitness (ln) (30 °C): -4.62 ± 0.24
self-splicing fitness (ln) (37 °C): -2.71 ± 0.17

GGUAAGCAAUAUUACGAGUC
self-splicing fitness (ln) (30 °C): -2.59 ± 0.16
self-splicing fitness (ln) (37 °C): -0.851 ± 0.13

GUGUAGCAAUAUUACGCAUC
self-splicing fitness (ln) (37 °C): -0.977 ± 0.26

UCGAAGCAAUAUUACGCGUC
self-splicing fitness (ln) (37 °C): -0.484 ± 0.32

GAACAGCAAUAUUACGCGAG
self-splicing fitness (ln) (30 °C): -2.2 ± 0.099
self-splicing fitness (ln) (37 °C): -1.32 ± 0.11

UAGCAGCAAUAUUACGAUCA
self-splicing fitness (ln) (30 °C): 0.112 ± 0.088
self-splicing fitness (ln) (37 °C): 0.169 ± 0.099

UACUAGCAAUAUUACGUGGA
self-splicing fitness (ln) (30 °C): -3.03 ± 0.22
self-splicing fitness (ln) (37 °C): -2.47 ± 0.21

UGUAAGCAAUAUUACGGGCU
self-splicing fitness (ln) (30 °C): -1.73 ± 0.17
self-splicing fitness (ln) (37 °C): -0.63 ± 0.16

AAAUAGCAAUAUUACGAGUA
self-splicing fitness (ln) (30 °C): -2.58 ± 0.19
self-splicing fitness (ln) (37 °C): -1.09 ± 0.12

AGGGAGCAAUAUUACGUAGU
self-splicing fitness (ln) (30 °C): -3.35 ± 0.23
self-splicing fitness (ln) (37 °C): -2.19 ± 0.35

GCUGAGCAAUAUUACGCUAG
self-splicing fitness (ln) (30 °C): -3.28 ± 0.16
self-splicing fitness (ln) (37 °C): -1.27 ± 0.14

GGUUAGCAAUAUUACGCUGA
self-splicing fitness (ln) (30 °C): -3.14 ± 0.14
self-splicing fitness (ln) (37 °C): -2.24 ± 0.13

UGACAGCAAUAUUACGUUAC
self-splicing fitness (ln) (30 °C): -3.81 ± 0.35
self-splicing fitness (ln) (37 °C): -3.32 ± 0.31

ACGAAGCAAUAUUACGCCAU
self-splicing fitness (ln) (30 °C): -4.46 ± 0.39
self-splicing fitness (ln) (37 °C): -3.02 ± 0.26

UGGAAGCAAUAUUACGAGCU
self-splicing fitness (ln) (30 °C): -1.95 ± 0.16
self-splicing fitness (ln) (37 °C): -0.801 ± 0.15

CGGAAGCAAUAUUACGCUUU
self-splicing fitness (ln) (30 °C): -2.02 ± 0.18
self-splicing fitness (ln) (37 °C): -3.26 ± 0.33
